Test results taken from article PMC10659578, “Mechanism of stepwise electron transfer in six-transmembrane epithelial antigen of the prostate (STEAP) 1 and 2” (eLife, 2023).

Molecular target: the molecule itself
Assay: SEC; purified hSTEAP2 on an SRT-3C SEC-300 column in 20 mM HEPES, 150 mM NaCl, 0.01% LMNG; single peak

B1: Human six-transmembrane epithelial antigen of the prostate 2 (STEAP2) (natural protein)
chain: MESISMMGSPKSLSETFLPNGINGIKDARKVTVGVIGSGDFAKSLTIRLIRCGYHVVIGSRNPKFASEFFPHVVDVTHHEDALTKTNIIFVAIHREHYTSLWDLRHLLVGKILIDVSNNMRINQYPESNAEYLASLFPDSLIVKGFNVVSAWALQLGPKDASRQVYICSNNIQARQQVIELARQLNFIPIDLGSLSSAREIENLPLRLFTLWRGPVVVAISLATFFFLYSFVRDVIHPYARNQQSDFYKIPIEIVNKTLPIVAITLLSLVYLAGLLAAAYQLYYGTKYRRFPPWLETWLQCRKQLGLLSFFFAMVHVAYSLCLPMRRSERYLFLNMAYQQVHANIENSWNEEEVWRIEMYISFGIMSLGLLSLLAVTSIPSVSNALNWREFSFIQSTLGYVALLISTFHVLIYGWKRAFEEEYYRFYTPPNFVLALVLPSIVILGKIILFLPCISRKLKRIKKGWEKSQFLEEGMGGTIPHVSPERVTVM
notes: N-terminal residues 1-27, residues 332-353 and C-terminal residues 470-490 are unresolved in the map, which implies a 490-residue chain; Homotrimer with heme; The cryo-EM sample was in GDN with FAD and NADP+; Residues of the TEV site may remain at the C-terminus after cleavage; also called hSTEAP2; not shown: His6, C-terminal, cleaved
In the case of B1, the “stoichiometry N” value is reported as 3.
